Data: publication PMC3557595 (Journal of molecular biology, 2012)

Columns and labels:
[1] = target: Hs H3.1(1-136)(S88Q/G103H)-His6/H4(1-103) (human, UniProt P68431 1-136; P62805 1-103, S88Q | G103H); assay: pull-down
[2] = target: GS-CENP-A^Hs(60-140)-LVPR and GS-H4^Hs(22-103) (human, UniProt P49450 60-140; P62805 22-103); assay: SEC
[3] = target: GS-CENP-A(60-140)-LVPR and H4^Hs(1-103) (human, UniProt P49450 60-140; P62805 1-103); assay: SEC

Measured: binding result

B1: Hs GS-HJURP(2-81) (domain or fragment)
chain: GSLGTLRAMEGEDVEDDQLLQKLRASRRRFQRRMQRLIEKYNQPFEDTPVVQMATLTYETPQGLRIWGGRLIKERNEGEIQD
binds: all assays above
